Experiments:
[1] = target: T1, Cy5-labeled proliferating cell nuclear antigen (PCNA) (human, UniProt P12004 1-261, Cy5 maleimide on cysteine(s), positions not stated); assay: single-molecule two-colour fluorescence imaging (Cy3-Cy5 co-localisation, Cy3 photobleaching steps); Cy5-PCNA loaded by RFC on bi-biotinylated lambda DNA on the DNA skybridge; 1 μM PAF15-Cy3 in reaction buffer incubated 10 min, unbound washed out; images 10-15 min after the start of washing; 150 mM potassium glutamate; room temperature (approximately 22°C); settings: both partners purified
[2] = target: T1, Cy5-labeled proliferating cell nuclear …; assay: single-molecule two-colour fluorescence imaging (Cy3-Cy5 co-localisation, FRET, Cy3 photobleaching steps); Cy5-PCNA loaded by RFC on bi-biotinylated lambda DNA on the DNA skybridge; 1 μM PAF15-Cy3 in reaction buffer incubated 10 min, unbound washed out; images 10-15 min after the start of washing; 100 mM potassium glutamate; room temperature (approximately 22°C); settings: both partners purified

T1 sequence (P12004 whole entry): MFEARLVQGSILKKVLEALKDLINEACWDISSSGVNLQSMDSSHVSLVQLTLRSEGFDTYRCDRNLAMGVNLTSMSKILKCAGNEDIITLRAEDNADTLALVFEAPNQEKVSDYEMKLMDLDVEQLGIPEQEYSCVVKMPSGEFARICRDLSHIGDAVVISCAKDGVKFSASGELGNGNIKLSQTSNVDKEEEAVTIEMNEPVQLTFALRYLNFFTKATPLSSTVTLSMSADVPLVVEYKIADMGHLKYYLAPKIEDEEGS

B1: Cy3-labeled PAF15 (Cys54Ser variant, Cy3 at Cys99) (natural protein, human, UniProt Q15004 2-111, looked up)
chain: VRTKADSVPGTYRKVVAARAPRKVLGSSTSATNSTSVSSRKAENKYAGGNPVSVRPTPKWQKGIGEFFRLSPKDSEKENQIPEEAGSSGLGKAKRKACPLQPDHTNDEKE
modifications: Cy3 on Cys99 (maleimide-thiol reaction)
stoichiometry N [1]: 1 PAF15 per PCNA ring
stoichiometry N [2]: 2 PAF15 per PCNA ring
